We go through 1 substance from article PMC2175135.

This assay deals with LexA-tpr-met-Gab1Cter Y473F Y590F (two-hybrid bait) (UniProt Q9QYY0). Kind of assay: two-hybrid.

In the case of “COOH-terminal SH2 domain of p85α PI(3)K (two-hybrid prey) (from UniProt P26450 624-718) (domain or fragment)”, the percent of the interaction with Gab1Cter was 25%.
